{
  "source": "patent US20260263505A1",
  "about": "“Uses of Compositions Comprising a Prebiotic Component” (Mead Johnson Nutrition Company, priority 2021, published 2026)",
  "origin": "cited, not measured here",
  "molecules": {"B1": {"name": "lactoferrin: multifunctional iron-binding glycoprotein naturally present in milk; test diet of Mika et al. (protein, UniProt P24627 20-708, looked up)", "Lactotransferrin": "APRKNVRWCTISQPEWFKCRRWQWRMKKLGAPSITCVRRAFALECIRAIAEKKADAVTLDGGMVFEAGRDPYKLRPVAAEIYGTKESPQTHYYAVAVVKKGSNFQLDQLQGRKSCHTGLGRSAGWIIPMGILRPYLSWTESLEPLQGAVAKFFSASCVPCIDRQAYPNLCQLCKGEGENQCACSSREPYFGYSGAFKCLQDGAGDVAFVKETTVFENLPEKADRDQYELLCLNNSRAPVDAFKECHLAQVPSHAVVARSVDGKEDLIWKLLSKAQEKFGKNKSRSFQLFGSPPGQRDLLFKDSALGFLRIPSKVDSALYLGSRYLTTLKNLRETAEEVKARYTRVVWCAVGPEEQKKCQQWSQQSGQNVTCATASTTDDCIVLVLKGEADALNLDGGYIYTAGKCGLVPVLAENRKSSKHSSLDCVLRPTEGYLAVAVVKKANEGLTWNSLKDKKSCHTAVDRTAGWNIPMGLIVNQTGSCAFDEFFSQSCAPGADPKSRLCALCAGDDQGLDKCVPNSKEKYYGYTGAFRCLAEDVGDVAFVKNDTVWENTNGESTADWAKNLNREDFRLLCLDGTRKPVTEAQSCHLAVAPNHAVVSRSDRAAHVKQVLLHQQALFGKNGKNCPDKFCLFKSETKNLLFNDNTECLAKLGGRPTYEEYLGTEYVTAIANLKKCSTSPLLEACAFLTR"}},
  "test_system": "Rats",
  "conditions": "after four weeks of diet, acute inescapable stressor",
  "data": [
    {"molecule": "B1", "values": [
      {"measurement": "stress-evoked cfos mRNA in the dorsal raphe nucleus", "value": "reduce"}
    ]}
  ]
}
